The text below walks through data of the supplement of paper PMC9170038.

In data set [1] the test system is MS2 coat protein. Kind of data set: apparent KD of MS2 coat protein, switch ON state; designed switch direction (-1 OFF switch, 1 ON switch): 1; higher = weaker reporter binding. To be noted: FMN input: 0 or 200 uM; Eterna round: R93 (includes R88 designs). The method in brief:
(§1)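 Illumina sequencing clusters served as templates for on-chip transcription of the designed RNA switches. SNAP-549-labelled MS2 coat protein was then titrated in twofold steps from 0.7 or 1.5 nM to 3 µM, allowing 0.8–1.5 h per step at first and 10–20 min per step later. The buffer held 100 mM Tris-HCl pH 7.5, 80 mM KCl and 4 mM MgCl2, without or with constant ligand. Apparent KD is the median per design of normalised cluster binding-curve fits.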

In data set [2] the test system is MS2 coat protein. Kind of data set: apparent KD of MS2 coat protein, switch OFF state (with FMN for OFF switches, without FMN for ON switches); designed switch direction (-1 OFF switch, 1 ON switch): 1; higher = weaker reporter binding. As to conditions: FMN input: 0 or 200 uM; Eterna round: R93 (includes R88 designs). An outline of the steps:
as §1

For the sequence “AUUAAAUAUAGUUAGGAUAUAAUAUGUAAGACAUGAGGAUCACCCAUGUCCUAAGAAUAGUUAAAUUAGAAGGAACAGUGAAUAU [JR_SS002_Sub420]”, the “apparent KD of MS2 coat protein” value is 24.1 nM in the data set on MS2 coat protein [1] and 24.5 nM in the data set with MS2 coat protein [2].
In the same order, the values of “AUUCCAAAUAGUCAGGAUAUCAGGCGUAAGACAUGAGGAUCACCCAUGUACUUAGUAAAAGUAACUGAGAAGGGACAGGGUGUAA [JR_SS002_Sub407]” are 8.64 nM and 18.5 nM.
In the same order, the values of “CAGAGACAUGAGGAUCACCCAUGUAGGAUUAUGGGAGGAUAUACAAAGACGAGAGUCAGAGUAGAAGGCCUAGGAG [salish99-ss1-143]” are 24 nM and 48.6 nM.
In the same order, the values of “CAGAGGAAGAGAGAGGAUAUCCAAAGGAAAACAUGAGGAUCACCCAUGUAAAAGGUAGGAAAUUGGGAGAAGGCUCAAGAGAGAG [salish99-ss2-064]” are 27.4 nM and 34.6 nM.
Turning to “CAGGACCUAGGAUAGGAUAUAUGAAUAAUUACAUGAGGAUCACCCAUGUCCAUUUAUAUGGGAACAUAGAAGGGUUGUGGUUAUG [Mat - Same state - Malcolm Mod - D133]”, the “apparent KD of MS2 coat protein” value with MS2 coat protein [1] is 179 nM; in the data set on MS2 coat protein [2], 118 nM.
The corresponding values for “CAUAGACAUGAGGAUCACCCAUGUAGAAUUAUGGGAGGAUAUACAAAGACGAGAGUCAGAGUAGAAGGCCUAGGAG [salish99-ss1-163]” are 24.4 nM and 34 nM.
As for “CAUCAUGCGCCUAAGGAUAUGUCUCACAAGACAUGAGGAUCACCCAUGUAGAAUAAAUAAAUGAUGCAGAAGGUGGAGCACAUGC [Leedanla]”, the “apparent KD of MS2 coat protein” value stood at 372 nM with MS2 coat protein [1] and 586 nM in the data set on MS2 coat protein [2].
In the same order, the values of “CGAAGACAUGAGGAUCACCCAUGUCGUCGUAACAGAGGAUAUGGGAGCGCCAAGGGCGCAUCAGAAGGCUGAAAAC [Beusle]” are 17.8 nM and 25.1 nM.
Regarding “CGAAGACAUGAGGAUCACCCAUGUGGGAAUAUGGGAGGAUAUACAAAGACGAGAGUCAGAGUAGAAGGCCUAGGAC [salish99-ss1-108]”, the “apparent KD of MS2 coat protein” value is 26.5 nM in the data set with MS2 coat protein [1] and 75.5 nM in the data set on MS2 coat protein [2].
As for “CGAAGACAUGAGGAUCACCCAUGUGGGAUUAUGGGAGGAUAUACAAAGACGAGAGUCAGAGUAGAAGGCCUAGGAA [salish99-ss1-124(!)]”, the “apparent KD of MS2 coat protein” value with MS2 coat protein [1] was 23.3 nM; with MS2 coat protein [2], 38.5 nM.
Take “CUGGACGUAGGAUAGGAUAUAUGAAUAAUUACAUGAGGAUCACCCAUGUCCAUUUAUAUGGGAACAUAGAAGGGUUGUGGUUAAG [Mat - Same state - Malcolm Mod - D145]”: the “apparent KD of MS2 coat protein” value in the data set on MS2 coat protein [1] worked out at 160 nM; in the data set on MS2 coat protein [2], 241 nM.
As to “GAAAAACAUGAGGAUCACCCAUGUAAGAUAAACACAGGAUAUGCGAAAAUAAACAAAUAAGCAGAAGGGUGAAAAG [Mat - Same State 1 - Tesla mod - 77]”, the results for the “apparent KD of MS2 coat protein” value with MS2 coat protein [1] and in the data set with MS2 coat protein [2] were 18.5 nM and 47.4 nM, respectively.
In the same order, the values of “GAAAAACAUGAGGAUCACCCAUGUAGAAAUAUGGGAGGAUAUACAAAGACGAAAGUCAAGGUAGAAGGCCUAAAAG [Mat - Same State 1 - Eli mod - 25]” are 37.5 nM and 78.8 nM.
For “GAAAAACAUGAGGAUCACCCAUGUAGAAAUAUGGGAGGAUAUACAAAGACGAAAGUCGAAGUAGAAGGCCUAAAAG [Mat - Same State 1 - Eli mod - D23]”, the “apparent KD of MS2 coat protein” value was determined as 25.5 nM in the data set with MS2 coat protein [1] and 66.8 nM in the data set on MS2 coat protein [2].
In the same order, the values of “GAAAAACAUGAGGAUCACCCAUGUAGAAAUAUGGGAGGAUAUACGAAGACGAAAGUCAAAGUAGAAGGCCUAAAAG [Mat - Same State 1 - Eli mod - D22]” are 28 nM and 57.3 nM.
The corresponding values for “GAAAAACAUGAGGAUCACCCAUGUAGAAAUAUGGUAGGAUAUACAAAGACGAAAGUCAAAGUAGAAGGGCCAAAAG [Starry Same State 1.4 (mat747 round 1 mod)]” are 13 nM and 19 nM.
In the same order, the values of “GAAAAACAUGAGGAUCACCCAUGUGAGAUAAACACAGGAUAUGCGAAAAUAAACAAAUAAGCAGAAGGGUGAAAAG [Mat - Same State 1 - Tesla mod - 80]” are 27.1 nM and 92.4 nM.
For the sequence “GAAAAACAUGAGGAUCACCCAUGUGGAAAUAUGGGAGGAUAUACGAAGACGAAAGUCGAAGUAGAAGGCCUAAAAG [Same State 1.4d (Mat - Mod of Eli - )]”, the “apparent KD of MS2 coat protein” value in the data set on MS2 coat protein [1] turned out to be 29.5 nM; in the data set with MS2 coat protein [2] it was 98.1 nM.
For the sequence “GAAAUAAAAAGACAGGAUAUCCAAAAGAAAACAUGAGGAUCACCCAUGUAAAGAAAAUAAAAAUGGGAGAAGGGUCAAAUAAAAG [Mat - Same State 2 - JL mod - D54]”, the results for the “apparent KD of MS2 coat protein” value with MS2 coat protein [1] and in the data set on MS2 coat protein [2] were 24 nM and 32.8 nM, respectively.
As to “GAAGACAUAGUAUAGGAUAUAUGAAUAAUUACAUGAGGAUCACCCAUGUGCAUUUAUAUGCGAACAUAGAAGGGUGGUAGUUGUC [Mat - Same state - Malcolm Mod - D129]”, the “apparent KD of MS2 coat protein” value is 633 nM in the data set on MS2 coat protein [1] and 59.2 nM in the data set on MS2 coat protein [2].
In the case of “GAGAAGAAGAGAGAGGAUAUCCAAAGGAAAACAUGAGGAUCACCCAUGUAAAAGGUAGGAAAUUGGGAGAAGGCUCAAAAGAGGG [salish99-ss2-028(!)]”, the “apparent KD of MS2 coat protein” value is 19.9 nM in the data set on MS2 coat protein [1] and 44 nM in the data set on MS2 coat protein [2].
The corresponding values for “GAGGACAUAGUACAGGAUAUAUGAAUAGUUACAUGAGGAUCACCCAUGUGCAUUUAUAUGCGAACAUAGAAGGGUGGUAGUUAUC [SameState2 Malc#30]” are 136 nM and 68.9 nM.
Turning to “GAUAAACAUGAGGAUCACCCAUGUAGAUAUAUGGGAGGAUAUACAAAGACGAUAGUCAUAGUAGAAGGCCUAAUAG [77%, Mat - Mod of Eli - With 5 more U's]”, the “apparent KD of MS2 coat protein” value with MS2 coat protein [1] worked out at 30 nM; in the data set on MS2 coat protein [2], 91.2 nM.
In the same order, the values of “GAUAGACAUGAGGAUCACCCAUGUAGAAUUAUGGGAGGAUAUACAAAGACGAGAGUCAGAGUAGAAGGCCUAGGAU [salish99-ss1-157]” are 23.6 nM and 54.4 nM.
The corresponding values for “GCUCCAGCUAGCAAGGAUAUGUAGGAUGCUACAUGAGGAUCACCCAUGUGCUGAAAUAAGUCCCGGCAGAAGGUGUGACUGGAGA [Laedtear]” are 16.8 nM and 26.9 nM.
The corresponding values for “GGAAAACAUGAGGAUCACCCAUGUGAAAACGUGGGAGGAUAUCCAUGGAAACCAUACUGUGGAGAAGGCCCAUGUC [EteRNA is fun!]” are 19.6 nM and 65.2 nM.
Regarding “GGCAGUCCGACACAGGAUAUGGGUAACGAAACAUGAGGAUCACCCAUGUGGAAACAUCGGGUUGCCUAGAAGGGUGGAAAGAUUG [Xeti]”, the “apparent KD of MS2 coat protein” value in the data set with MS2 coat protein [1] came to 26.4 nM; in the data set on MS2 coat protein [2], 259 nM.
“GGGAGACAUGAGGAUCACCCAUGUGAGAAGAGGCGAGGAUAUCGAAAGAAAGAAGAGAAACGAGAAGGCGCGAGCU [salish99-SS1-056]”: the results for the “apparent KD of MS2 coat protein” value with MS2 coat protein [1] and in the data set on MS2 coat protein [2] were 28.1 nM and 62 nM, respectively.
In the same order, the values of “GGGAGACAUGAGGAUCACCCAUGUGAGAAGAGGCGAGGAUAUCGAAAGAAAGAAGAGAAACGAGAAGGCGCGAGGA [salish99-SS1-051]” are 37.7 nM and 44.7 nM.
For the sequence “GGGAGGAAGAGAGAGGAUAUCCAAAGGAAAACAUGAGGAUCACCCAUGUAAAAGGUAGGAAAUUGGGAGAAGGCUCAAAAGAAGG [salish99-ss2-045]”, the entries for the “apparent KD of MS2 coat protein” value with MS2 coat protein [1] and with MS2 coat protein [2] were 27.6 nM and 36.5 nM, respectively.
The corresponding values for “GUAGAACAUGAGGAUCACCCAUGUGAAGACGCAUGAGGAUAUAUACGUAAAUAGCAUACGAUAGAAGGCAUGAUAA [JR_SS001_Sub1703]” are 25.5 nM and 53.5 nM.
The corresponding values for “GUAUGCAUGAGGUAGGAUAUCCAAAACAAAACAUGAGGAUCACCCAUGUAAACAAACAACAAAUGGGAGAAGGACCACAUGUAUAC [Ex6 sub 5]” are 13.1 nM and 27.1 nM.
For “UAACAGCACAGGUAGGAUAUGUAGGGUGGUACAUGAGGAUCACCCAUGUAUCCACCCUUCGAAAGGCAGAAGGGCCUGUCGCUAC [Velabibe]”, the “apparent KD of MS2 coat protein” value came to 14.6 nM in the data set on MS2 coat protein [1] and 20.4 nM with MS2 coat protein [2].
In the same order, the values of “UAAUAAUAAACCAAGGAUAUGGAGUAAAGAACAUGAGGAUCACCCAUGUGUAGCGUGGAAUAGUACCAGAAGGUGGAGUGAAAUG [JR_SS002_Sub1003]” are 54.1 nM and 52.3 nM.
Take “UAGAGAACAGGGUAGGAUAUGCAUGGUCGUACAUGAGGAUCACCCAUGUAGUCUAGAAAAUAAAUGCAGAAGGACCAAAAGAAAA [Edsodiin]”: the “apparent KD of MS2 coat protein” value came to 15.6 nM in the data set with MS2 coat protein [1] and 32 nM in the data set with MS2 coat protein [2].
With “UAGAGACAUGAGGAUCACCCAUGUAGGAUUAUGGGAGGAUAUACAAAGACGAGAGUCAGAGUAGAAGGCCUAGGAU [salish99-ss1-134(!)]”, the “apparent KD of MS2 coat protein” value with MS2 coat protein [1] was 27.4 nM; in the data set with MS2 coat protein [2] it was 61.4 nM.
The corresponding values for “UAUAAACAUGAGGAUCACCCAUGUAGAAAUAUGGGAGGAUAUACGAAGACGAAAGUCAAAGUAGAAGGCCUAAUAU [Mat - Same State 1 - Eli mod - D113]” are 16.9 nM and 49.2 nM.
The corresponding values for “UCCUUACAUGAGGAUCACCCAUGUCGCAGGAAUCAAGGAUAUGGGACCGCAAUGCGGAAACCAGAAGGUGACAAAA [Zaesor]” are 158 nM and 322 nM.
